# Laboratory results: US11826400B2, “Neuregulin based compositions and uses thereof for preventing, treating or delaying the myocardial ischemia-reperfusion injury” (ZENSUN (SHANGHAI) SCIENCE & TECHNOLOGY LIMITED, priority 2010, dated 2023)
# Tested on: myocardial ischemia reperfusion in rat
# Assay: Therapeutic effect on myocardial ischemia reperfusion in rat (coronary ligation 45 min, reperfusion 2 h, TCC staining of heart sections)
# Assay type: in vivo, Wistar rats
# Conditions: P<0.05
# Description: Wistar rats (male, 200˜240 g) were divided into groups and administered with different dosages of rhNRG-1, placebo or rhThymosin-β4 (as shown in Table 1) after anaesthetized with intra-abdominal injection of 20% urethane (5 ml/kg). Thirty minutes after the drug started to be given to the rats, the anterior descending limb of the left coronary artery was ligated for 45 minutes to cause partial myocardium turned white obviously in the ligation area. After that the ligation thread was loosen to keep coronary blood flow for 2 hours and then take out the heart rapidly and wash vascular fat away with normal saline, and then freeze the heart in −30° C. for one hour.
# Cut the heart parallelly from apex to base along coronary sulcus to myocardium sections with the thickness of 1 mm, and then put them into TCC dye liquor for 20 min in 37° C. in a shaker. After staining extra dye was washed immediately with water, and then the sections were put into 4% formalin for one hour. Photo and analyze the total size and the infarction size of were analyzed with Image Analysis Software. Infarction size ratio equals to the ratio of the infarction size and the total size of the myocardium section.
molecule,measurement,setting,value
"rhNRG-1: produced by Zensun (Shanghai) Science & Technology Ltd, having the amino acids of SEQ ID NO:1 (177-237 residues of NRG-1β2 isoform) (protein, listed as Homo sapiens) SHLVKCAEKEKTFCVNGGECFMVKDLSNPSRYLCKCPNEFTGDRCQNYVMASFYKAEELYQ",Infarction size compared with Group A (placebo),"Group B, 10 μg/kg/h continuous infusion",significantly smaller than that of Group A
same,Infarction size compared with Group A (placebo),"Group C, 30 μg/kg/h continuous infusion",significantly smaller than that of Group A
